One molecule from patent US20260028400A1 (AIMED BIO, published 2026) can be followed below.

Read-outs that look alike come from different tables or passages of the source.

Holding throughout (assay): cell-based or functional assay
The target of experiment [1] is T1, ROR1 expressed on cell surface (Jeko-1 cell line, AMB-LC-0003T and AMB-LC-0002T patient-derived lung cancer … (human, UniProt Q01973 30-937)).
The target in experiment [2] is T1, ROR1 expressed on cell surface (Jeko-1 …). This is another data set of the same source.
The target is the same in experiment [3]. This is another data set of the same source.

T1 sequence (Q01973 30-937): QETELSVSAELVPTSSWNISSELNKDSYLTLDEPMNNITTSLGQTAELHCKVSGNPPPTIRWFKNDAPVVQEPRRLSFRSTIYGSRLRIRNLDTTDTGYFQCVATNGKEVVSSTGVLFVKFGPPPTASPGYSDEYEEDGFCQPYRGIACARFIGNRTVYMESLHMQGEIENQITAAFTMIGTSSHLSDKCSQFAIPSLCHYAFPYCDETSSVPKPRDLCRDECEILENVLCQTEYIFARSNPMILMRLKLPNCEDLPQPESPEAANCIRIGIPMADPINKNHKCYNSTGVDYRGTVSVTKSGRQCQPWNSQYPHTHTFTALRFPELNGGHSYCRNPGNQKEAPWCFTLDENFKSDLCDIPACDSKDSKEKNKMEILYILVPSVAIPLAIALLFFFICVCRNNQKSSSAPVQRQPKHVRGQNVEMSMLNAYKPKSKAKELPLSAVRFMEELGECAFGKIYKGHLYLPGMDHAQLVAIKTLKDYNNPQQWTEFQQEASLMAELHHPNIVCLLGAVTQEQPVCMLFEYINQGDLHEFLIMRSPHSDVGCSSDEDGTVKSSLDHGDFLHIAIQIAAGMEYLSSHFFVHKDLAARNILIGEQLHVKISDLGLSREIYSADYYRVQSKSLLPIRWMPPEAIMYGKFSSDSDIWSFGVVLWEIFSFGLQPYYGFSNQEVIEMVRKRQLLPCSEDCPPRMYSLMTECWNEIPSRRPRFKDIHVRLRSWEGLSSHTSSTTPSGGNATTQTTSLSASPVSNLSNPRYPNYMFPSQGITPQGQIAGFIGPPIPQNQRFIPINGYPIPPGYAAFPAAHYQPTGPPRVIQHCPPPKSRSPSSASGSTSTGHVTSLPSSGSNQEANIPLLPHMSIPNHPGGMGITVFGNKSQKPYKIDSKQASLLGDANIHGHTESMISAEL

B1: P015042-vc-PAB-MMAE (antibody, IgG1, V domains shown)
VH: EVQLLESGGGLVQPGGSLRLSCAASGFTFSDYAMSWVRQAPGKGLEWVSVISSDGGSIYYADSVKGRFTISRDNSKNTLYLQMNSLRAEDTAVYYCAKDRSRDMEVDFDYWGQGTLVTVSS
VL: QSVLTQPPSASGTPGQRVTISCSGSSSNIGSNYVTWYQQLPGTAPKLLIYDSSQRPSGVPDRFSGSKSGTSASLAISGLRSEDEADYYCGTWDYSLSGYVFGGGTKLTVL
modifications: maleimidocaproyl-valine-citrulline-p-aminobenzyloxycarbonyl monomethyl auristatin E on cysteine sulfhydryls of reduced disulfides; positions not given; average 3.3 drugs per antibody
As to B1, in experiment [1], the “Fold Change of IC50, AMB-LC-0002T/AMB-LC-0003T” value was found to be 56.3 fold; the “IC50 (nM), spheroid volume after 6 days of treatment, AMB-LC-0003T (high ROR1 expression)” value came to 2.88 nM; the “IC50 (nM), spheroid volume, AMB-LC-0002T (very low ROR1 expression)” value stood at 162 nM. The “IC50, spheroid volume, AMB-LC-0002T (low ROR1 expression)” value in experiment [2] was at least 100 nM. Besides, in experiment [3], the “Fold Change of IC50, AMB-LC-0002T/AMB-LC-0003T” value is 81.4 fold; the “IC50 (nM), spheroid volume, AMB-LC-0002T (low ROR1 expression)” value came to 187 nM; the “IC50 (nM), spheroid volume, AMB-LC-0003T (high ROR1 expression)” value was 2.3 nM.
